The supplement of paper PMC9170038

Tested on: MS2 coat protein
Test: apparent KD of MS2 coat protein; designed switch direction (-1 OFF switch, 1 ON switch): -1; higher = weaker reporter binding
Summary of the method: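 For each design, the apparent KD is the median over clusters of curves fitted to normalised cluster fluorescence. Clusters held RNA switches with common flanks, transcribed on Illumina chips by stalled E. coli RNA polymerase. These were titrated with SNAP-549-labelled MS2 coat protein, doubling from 0.7 or 1.5 nM to 3 µM, without input, with 200 uM small-molecule ligand, or with an oligonucleotide input.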

[1] = Eterna round: R95, input ligand: microRNA oligo, concentration not stated
[2] = input ligand: microRNA oligo, concentration not stated
[3] = Eterna round: R95, input ligand: FMN 200 uM
[4] = Eterna round: R95, input ligand: none

Row | Sequence | apparent KD of MS2 coat protein [1] [nM] | apparent KD of MS2 coat protein (input ligand: FMN 200 uM) [nM] | apparent KD of MS2 coat protein (input ligand: none) [nM] | also measured
1 | UUUUACAUAGGAUAUAGUUUGUUGUACAUGAGGAUCACCCAUGUUUUUGGUUGUGCUUUUCUAGAAGGAUGUUUCU [JR_E5_Sub015] (puzzle: Exclusion 5) | 43.8 |  |  | 
2 | CUGUGCACGCUGCGAUCCUACAUGAGGAUCACCCAUGUGGUCUGGUGGCGUGGGUCACCGGACUUGGCUCGUCUUGG [salish99_S_TOV1_R5_078] (Eterna round: R97, puzzle: Sensor, turn-off variant 1) |  | 129 | 150 | 
3 | AGUACUAACACGAUAGUGUUAGUACAAUAAGCUUGUGAAACAUGAGGAUCACCCAUGUCCUCAUAAGCUCGUCUUAU [salish99_TOv2_r3_030] (Eterna round: R96, puzzle: Sensor v3, turn-off variant 2) |  | 15.1 | 17.3 | apparent KD of MS2 coat protein [2]: 507 nM
4 | GUUGCAAGCACUUACGUUGACAUGAGGAUCACCCAUGUAGCAUCUCCGCCAAUCUAAGCCGUUGUCUUAUAUACCUU [Eternabot (L2) Solution 3] (Eterna round: R97, puzzle: Sensor, turn-off variant 1) |  | 34.5 | 51.7 | 
5 | AAUAAUAAGGAGGAUAUCGUAUCGGAAACGAUACGAGAAGGCUUAACAUGAGGAUCACCCAUGUUCCUCAAUAA [Fiskers Ex 6 - 22] (puzzle: Exclusion 6) | 33.5 |  |  | 
6 | AGUUGACGAGAAGGAUAUCCGAACCUUUAAAGAGGAGAAGGUCUAUCAACAUGAGGAUCACCCAUGUACAUCGCUCGGGUGUCC [Arenis] (Eterna round: R96, puzzle: Exclusion NG 1) |  |  |  | apparent KD of MS2 coat protein [2]: 54.7 nM
7 | GAAGUCGACUAGGAUAUUACAGGCUCAUGCCGUUGAGAAGGAGUGACAUGAGGAUCACCCAUGUCCUCAAGCGC [Eternabot (Original) Solution 48] (Eterna round: R97, puzzle: Exclusion 6) |  | 20.3 | 16.2 | 
8 | GGUCAAGAACAGAUCCGCGCUGCCAUUGACCGCUCAUUUACAUGAGGAUCACCCAUGUUUUUUGCUCAUCUUGUUAC [Usdila] (puzzle: Sensor v3, turn-off variant 2) | 62.2 |  |  | apparent KD of MS2 coat protein [3]: 20.2 nM; apparent KD of MS2 coat protein [4]: 19.8 nM
9 | AUAUUACGAGGAUAUCGUUUUUUUCACAUGAGGAUCACCCAUGUUAUUUAUGUUUCGUUUCGAGAAGGCGUAAGUU [JR_E5_Sub069] (puzzle: Exclusion 5) | 22.3 |  |  | 
10 | GUCAGGAAUGUAGGAUAUCUGCACGUGUAGUGCAGAGAAGGACAUGAGGAUCACCCAUGUAUAGUAGCUUCGGCUACACCUGAC [ENG1-A3] (Eterna round: R96, puzzle: Exclusion NG 1) |  | 18 | 18.1 | apparent KD of MS2 coat protein [2]: 9.93 nM
11 | CUUUAGCAGGUAGGAUAUACGAAGUGUCGGCGAGUAGAAGGACCUGCGAUCCACUUGAGGAUCACCCAAGUUCGCAGGAGAACA [Mutated MS2 EX1.10] (Eterna round: R96, puzzle: Exclusion NG 1) |  | 103 | 50.8 | apparent KD of MS2 coat protein [2]: 35.6 nM
12 | UGGUGGAAGCAGGAUAUGCUAGAAGUGUAGUUUGCAGAAGGGCUAACAUGAGGAUCACCCAUGUAAGAGGUGUU [JR_E6_Sub053] (puzzle: Exclusion 6) | 211 |  |  | apparent KD of MS2 coat protein [3]: 94.2 nM; apparent KD of MS2 coat protein [4]: 290 nM
13 | UCAUGUUUAGAGGAUAUGAUUACUCUAGAGUGAUCAGAAGGCUAGACAUGAGGAUCACCCAUGUCAUAACAUGA [Exclusion 6 - B - 16:a] (puzzle: Exclusion 6) | 85.7 |  |  | apparent KD of MS2 coat protein [3]: 56.3 nM; apparent KD of MS2 coat protein [4]: 127 nM
14 | AGUCGUAGACAGGAUAUGCGGCUAAUAAAUAAAGCAGAAGGGUCUACUUGAGGAUCACCCAAGUGGGCGGUUUA [jl-ex6-4.20 ViennaUCT mod] (Eterna round: R97, puzzle: Exclusion 6) |  | 96.3 | 23.1 | 
15 | CACCUACAUGAGGAUCACCCAUGUCAGGAUAUCUUUGCUAAUAUGAAUAGAUGCGUAAAGAGAAGGGACAUUUC [EX1 C.8] (Eterna round: R97, puzzle: Exclusion 1) |  | 27 | 14.9 | 
16 | ACUUAUUGAGGAUAUACAGAAAAUUACAUGAGGAUCACCCAUGUUCUUCAAUGUAUAUAUGUAGAAGGCAGAAGAU [Mat - Exclusion 5 - JL Mod - D16] (Eterna round: R97, puzzle: Exclusion 5) |  | 48.9 | 14.5 | 
17 | GAUUAUGCGAGCUUUAGGGACAUGAGGAUCACCCAUGUUCGUCUUAUUGAUCUGGGUACACUGACAUACCUAAAUCU [JMF 70] (puzzle: Sensor v3, turn-off variant 1) | 115 |  |  | apparent KD of MS2 coat protein [3]: 88.8 nM; apparent KD of MS2 coat protein [4]: 110 nM
18 | AAGCAGUCAGGAUAUCGUUAAUUUAGUUGUUUGUAUUAGUUCGAGAAGGGACAUGAGGAUCACCCAUGUAUGAA [Ex4 #42] (Eterna round: R97, puzzle: Exclusion 4) |  | 51.5 | 48.3 | 

Row | Sequence | apparent KD of MS2 coat protein [1] [nM] | apparent KD of MS2 coat protein (input ligand: FMN 200 uM) [nM] | apparent KD of MS2 coat protein (input ligand: none) [nM] | also measured
19 | CCAAGCUUGUUCAUUAACCACAUGAGGAUCACCCAUGUCUUGGCAAUUAUGACUUGCCCGUCAGGUGCUCGUCUUAU [Sensor-V1 #35] (Eterna round: R97, puzzle: Sensor, turn-off variant 1) |  | 65.5 | 71.3 | 
20 | CUUUUGUGAGGAUAUUAGUAGUAAAUAAAUAAUAUUACUACUGAGAAGGCACAUGAGGAUCACCCAUGUUCCUC [salish99_ex4_r3_059] (puzzle: Exclusion 4) | 38.8 |  |  | 
21 | GAUCGUUUAGAGGAUAUCGUGCUAAACAUUACAUGAGAAGGCUAGACAUGAGGAUCACCCAUGUAUGCUCGUGA [Exclusion 6 - 8:b] (puzzle: Exclusion 6) | 14.8 |  |  | 
22 | CCAGGCUGUGUGAGGAUAUGCUGGUCCUUGGAUCAGCAGAAGGCACAUGAGGAUCACCCAUGUGAAUAGCUUGG [JL bmx4 3.26] (puzzle: Brourd's mod of Exclusion 4) | 15.8 |  |  | 
23 | GGUGGACAUGAGGAUCACCCAUGUGAGGAUAUCGGCUAUCUUAUCGCUGUCGGUUGCUCGAGAAGGCACAUUGU [Exclusion 1 V96] (puzzle: Exclusion 1) | 71.2 |  |  | 
24 | UCGCUCCGUGUAGGAUAUCGCCGUUCCACUCGGCGAGAAGGACAUGAGGAUCACCCAUGUAUGUUAUUAUCACGUGUGGCGCGC [Design 53] (Eterna round: R96, puzzle: Exclusion NG 1) |  | 32 | 18.1 | apparent KD of MS2 coat protein [2]: 16.5 nM
25 | UUGCAGUCGUCAGGAUAUAGUAUUACGGCCAUUUAUUUUUUCAUACAUGAGGAUCACCCAUGUCGCUAGAAGGGAUUAUCGAUU [salish99_ExNG2_r04_102] (Eterna round: R96, puzzle: Exclusion NG 2) |  |  |  | apparent KD of MS2 coat protein [2]: 38.9 nM
26 | UAUUAGCAAGCGAGAUCCCACAUGAGGAUCACCCAUGUAGCUCGUCUUAUAAAGGUUUCGACGAAAACGUCGAGACC [Eli 91 v27] (Eterna round: R97, puzzle: Sensor, turn-off variant 1) |  | 17.5 | 16.1 | 
27 | CUCUUGUCAGGAUAUUAUGGACGAAGGCAGGGCCGCGUCAGUGAGAAGGGACAUGAGGAUCACCCAUGUAAAAU [Riintesoa] (puzzle: Exclusion 4) | 73.9 |  |  | 
28 | GAUUCGCGAGGAUAUACAGUCGAGUCCAUUACGUGUCUGGGACUUGAGGAUCACCCAAGUAGAAGGCGUCUCAU [salish99_ex2_r4_638] (Eterna round: R97, puzzle: Exclusion 2) |  | 55.6 | 57.8 | 
29 | AGUACUAACACGAUAGUGUUAGUACAAUAAGCUUGUGAAACAUGAGGAUCACCCAUGUCCUCAUAAGCUCGUCUUAU [salish99_TOv2_r3_030] (puzzle: Sensor v3, turn-off variant 2) | 993 |  |  | apparent KD of MS2 coat protein [3]: 14.5 nM; apparent KD of MS2 coat protein [4]: 14.6 nM
30 | GUACAACAUGAGGAUCACCCAUGUGAGGAUAUGCGAAUUUCAUCAAAAGAUGAAAUUUGCAGAAGGCACAGUAC [Omei Ex1 A8] (Eterna round: R97, puzzle: Exclusion 1) |  | 26.6 | 32.8 | 
31 | UUUUUCAGGCCAGAUCCUCACAUGAGGAUCACCCAUGUGCUCGUCUGUUUUCGCUCUGUCUUUUUUUUGGUGGUGCU [Level Boss var2-20] (puzzle: Sensor v3, turn-off variant 1) | 26.7 |  |  | apparent KD of MS2 coat protein [3]: 177 nM; apparent KD of MS2 coat protein [4]: 178 nM
32 | UCCUCGUCAGGAUAUCCACGGAAUAGCGGGAUACCGAGCGUGGAGAAGGGACAUGAGGAUCACCCAUGUAAAAU [Edlare] (puzzle: Exclusion 4) | 24.9 |  |  | 
33 | AGUAACUAUCACGAAAGUGAUAGUUACACAAGCAGUGAAACAUGAGGAUCACCCAUGUCCUCAAUUGCUCGUCUUAU [Sensor 3 - 31] (puzzle: Sensor v3, turn-off variant 2) | 194 |  |  | apparent KD of MS2 coat protein [3]: 47.8 nM; apparent KD of MS2 coat protein [4]: 49.6 nM
34 | GAAAAACAUGAGGAUCACCCAUGUAAGGAUAUGCUGAAAAACACGGAAAAAACGUGCAGCAGAAGGUACAAAAG [Mat - Exclusion 1 - Eli mod - D91] (Eterna round: R96, puzzle: Exclusion 1) |  | 107 | 71.1 | apparent KD of MS2 coat protein [2]: 44.8 nM
35 | GAAAAGCGAGGAUAUACUUGCAGUGUACCUCGGGUGAUCUCACUUGAGGAUCACCCAAGUAGAAGGCGCGAGGG [Quletibe] (Eterna round: R97, puzzle: Exclusion 2) |  | 4.5 | 45.2 | 
36 | GUCGUGUUAGGAUAUGGCGGCGGCGGCGAAAGUUGUUGUUGUUAGAAGGAACAUGAGGAUCACCCAUGUAUGAC [-26 -25.5 kcal, A 24%] (Eterna round: R97, puzzle: Exclusion 4) |  | 104 | 35.3 | 
